B1: Trx-EAT-17F (natural protein, C. elegans, UniProt S6F527-6 1-396, looked up)
chain: MNSDVHRKLEGAYETIRELSSARRDNIMDTGTQVDDTSMIEHIHSLQQELIEAHTRQADSENTLRDAKLRVSELEMANKRLLENEPSEDVAGLQEELISVKMREAESSLALKEMRQRLAELEQHWAKYVHVRAFDPSSASIEKESTSEAHSTQQQPSPPLTSARARLAKITASLIGGSTEETDNCISVRELEDQLMGVRIKEADTLAELKEMRQKVMELETQNHVCTNQLKRQDEEMKRVREDSEVLVKKRKELEDQLKDEKEKLDNKESEFNEGRINDRLKYSEAMQTIQDLQSSISQLELKKAEKWTQNQLRGSSVCDLDEESNSHGSICSNVDHLSLASDEMNALLADMTVRIPTLDDLAEEGSATETDELRPKELNDGNDTTDSGVQLSDSH

Tests used:
Test in all cases: SEC-MALS
[1] = target: MBP-BICD-1 CTF (C. elegans)
Trx-EAT-17F (C. elegans) = Trx-EAT-17F (C. elegans) (UniProt S6F527)
SEC-MALS = target: the molecule itself

Row | Molecule | stoichiometry N [1] | stoichiometry N (BICD-1 CTF per EAT-17F (printed as 2:2)) (Trx-EAT-17F (C. elegans)) | stoichiometry N (SEC-MALS)
1 | MBP-BICD-1 CTF (domain or fragment) | 2 | 1 | –
2 | B1 | – | – | 2

— PMC11544243 (Nature Communications, 2024)
